B1: Pistol ribozyme (parent)
chain: GGGUCGUUGUUCCAUAAUCGCGUGGAUAUGGCACGCAAGUUUCUACCGGGCACCGUAAAUGUCCGACUGGAGCCGUUCGGGCGGCUAUAAACAGACCUCAGGCCCGAAGCGUGGCGGCACCUGCCGCCGGUGGUAAAAAAGAUCGGAAGAGCACACGUCU

Variants of: B1
Experiment: aptazyme ON/OFF ratio, guanine; higher = stronger switching; co-transcriptional cleavage with and without guanine

Row | Variant | aptazyme ON/OFF ratio
1 | U7C U8G G9U U10A U11G C12A C13G | 1.14
2 | U7C U8G G9U U10A U11G C12A C13A | 1.11
3 | U7C U8G G9U U10A U11G C12A C13U | 1.06
4 | U7C U8G U10A C12G | 1.18
5 | U7C U8G U10A C12U | 2.01
6 | U7C U8G U10A C12A | 1.41
7 | U7C U8G U10C U11A | 2.93
8 | U7C U8G U10C U11C | 3.48
9 | U7C U8G U10A C13G | 1.15
10 | U7C U8G U10A C13U | 1.46
11 | U7C U8G U10A C13A | 1.15
12 | U7C U8G G9U U10C U11A C12A C13A | 1.26
13 | U7C U8G G9U U10C U11A C12A C13U | 1.24
14 | U7C U8G G9U U10C U11A C12A C13G | 1.15
15 | U7C U8G G9U U10A U11A C12U C13U | 1.25
16 | U7C U8G G9U U10A U11A C12U C13A | 1.22
17 | U7C U8G G9U U10A U11A C12U C13G | 1.08
18 | U7C U8G G9U U10G U11C | 1.07
19 | U7C U8G G9U U10G U11A | 1.13
20 | U7C U8G G9U U10G U11G | 1.18
21 | U7C U8G U10A U11G C12U C13G | 1.08
22 | U7C U8G U10A U11G C12U C13A | 1.07
23 | U7C U8G U10A U11G C12U C13U | 1.17
24 | U7C U8G U10C C12U C13G | 1.3

Row | Variant | aptazyme ON/OFF ratio
25 | U7C U8G U10C C12U C13A | 1.61
26 | U7C U8G U10C C12U C13U | 2.3
27 | U7C U8G G9U U10G C12U C13G | 1.1
28 | U7C U8G G9U U10G C12U C13A | 1.17
29 | U7C U8G G9U U10G C12U C13U | 1.32
30 | U7C U8G G9U U10A U11C | 1.04
31 | U7C U8G G9U U10A U11G | 1.22
32 | U7C U8G G9U U10A U11A | 1.34
33 | U7C U8G G9U U11C C12U C13U | 1.32
34 | U7C U8G G9U U11C C12U C13G | 1.07
35 | U7C U8G G9U U11C C12U C13A | 1.38
36 | U7C U8G G9U U10C U11G C12A C13A | 1.1
37 | U7C U8G G9U U10C U11G C12A C13U | 1.22
38 | U7C U8G G9U U10C U11G C12A C13G | 1.13
39 | U7C U8G U10A U11A C12G C13U | 1.17
40 | U7C U8G U10A U11A C12G C13A | 1.11
41 | U7C U8G U10A U11A C12G C13G | 1.13
42 | U7C U8G G9U U10C U11G C12A | 1.14
43 | U7C U8G G9U U10C U11G C12U | 1.28
44 | U7C U8G G9U U10C U11G C12G | 1.21
45 | U7C U8G U10A U11G C12A C13A | 1.12
46 | U7C U8G U10A U11G C12A C13G | 1.13
47 | U7C U8G U10A U11G C12A C13U | 1.12
48 | U7C U8G G9U U11G C12U C13G | 1.23

Row | Variant | aptazyme ON/OFF ratio
49 | U7C U8G G9U U11G C12U C13U | 1.29
50 | U7C U8G G9U U11G C12U C13A | 1.32
51 | U7C U8G G9U U10C C12G C13G | 1.34
52 | U7C U8G G9U U10C C12G C13A | 1.28
53 | U7C U8G G9U U10C C12G C13U | 1.25
54 | U7C U8G G9U U10C U11G C12G C13A | 1.15
55 | U7C U8G G9U U10C U11G C12G C13G | 1.15
56 | U7C U8G G9U U10C U11G C12G C13U | 1.08
57 | U7C U8G G9U U11A C12U | 1.39
58 | U7C U8G G9U U11A C12G | 1.18
59 | U7C U8G G9U U11A C12A | 1.52
60 | U7C U8G U10A U11C C12G C13A | 1.14
61 | U7C U8G U10A U11C C12G C13G | 1.22
62 | U7C U8G U10A U11C C12G C13U | 1.24
63 | U7C U8G G9U U10C U11C C13A | 1.03
64 | U7C U8G G9U U10C U11C C13G | 1.05
65 | U7C U8G G9U U10C U11C C13U | 1.03
66 | U7C U8G G9U U10A U11A C13U | 1.22
67 | U7C U8G G9U U10A U11A C13A | 1.19
68 | U7C U8G G9U U10A U11A C13G | 1.09
69 | U7C U8G U10C U11A C12A | 2.52
70 | U7C U8G U10C U11A C12U | 3.58
71 | U7C U8G U10C U11A C12G | 1.2
72 | U7C U8G G9U U10G U11C C12A | 1.18

Row | Variant | aptazyme ON/OFF ratio
73 | U7C U8G G9U U10G U11C C12U | 1.09
74 | U7C U8G G9U U10G U11C C12G | 1.18
75 | U7C U8G G9U U10A U11G C13G | 1.04
76 | U7C U8G G9U U10A U11G C13U | 1.28
77 | U7C U8G G9U U10A U11G C13A | 1.13
78 | U7C U8G U10A | 2.08
79 | U7C U8G U10C | 1.34
80 | U7C U8G G9U U10A C12G C13U | 1.21
81 | U7C U8G G9U U10C U11G | 1.23
82 | U7C U8G G9U U10C U11A | 1.5
83 | U7C U8G G9U U10C U11C | 1.06
84 | U7C U8G G9U U10C C12U C13G | 1.32
85 | U7C U8G G9U U10C C12U C13A | 1.38
86 | U7C U8G G9U U10C C12U C13U | 1.38
87 | U7C U8G G9U U11C C13G | 1.02
88 | U7C U8G G9U U11C C13A | 1.12
89 | U7C U8G G9U U11C C13U | 1.09
90 | U7C U8G U10C U11A C13U | 3.36
91 | U7C U8G U10C U11A C13A | 1.32
92 | U7C U8G U10C U11A C13G | 1.16
93 | U7C U8G G9U U10C U11C C12U C13U | 1.09
94 | U7C U8G G9U U10C U11C C12U C13G | 1.05
95 | U7C U8G G9U U10C U11C C12U C13A | 1.05
96 | U7C U8G G9U U11A | 1.58

Row | Variant | aptazyme ON/OFF ratio
97 | U7C U8G G9U U11C | 1.13
98 | U7C U8G G9U U11G | 1.2
99 | U7C U8G G9U U10C C12A C13A | 1.41
100 | U7C U8G G9U U10C C12A C13U | 1.37
101 | U7C U8G G9U U10C C12A C13G | 1.19
102 | U7C U8G G9U U10G U11G C12U C13G | 1.18
103 | U7C U8G G9U U10G U11G C12U C13A | 1.2
104 | U7C U8G G9U U10G U11G C12U C13U | 1.26
105 | U7C U8G U10A U11C | 1.04
106 | U7C U8G U10A U11A | 2.1
107 | U7C U8G U10A U11G | 1.35
108 | U7C U8G G9U U10A U11C C12G C13U | 1.19
109 | U7C U8G G9U U10A U11C C12G C13G | 1.27
110 | U7C U8G G9U U10A U11C C12G C13A | 1.16
111 | U7C U8G G9U U11G C12G C13A | 1.1
112 | U7C U8G G9U U11G C12G C13G | 1.18
113 | U7C U8G G9U U11G C12G C13U | 1.11
114 | U7C U8G U10A U11G C12U | 1.2
115 | U7C U8G U10A U11G C12A | 1.11
116 | U7C U8G U10A U11G C12G | 1.23
117 | U7C U8G G9U U10G U11A C12G C13G | 1.3
118 | U7C U8G G9U U10G U11A C12G C13U | 1.32
119 | U7C U8G G9U U10G U11A C12G C13A | 1.15
120 | U7C U8G U10C C13U | 1.54

Row | Variant | aptazyme ON/OFF ratio
121 | U7C U8G U10C C13G | 2.71
122 | U7C U8G U10C C13A | 1.86
123 | U7C U8G G9U U10A U11A C12A C13G | 1.14
124 | U7C U8G G9U U10A U11A C12A C13A | 1.16
125 | U7C U8G G9U U10A U11A C12A C13U | 1.24
126 | U7C U8G G9U U11A C12U C13U | 1.45
127 | U7C U8G G9U U11A C12U C13G | 1.24
128 | U7C U8G G9U U11A C12U C13A | 1.43
129 | U7C U8G U10A C12G C13A | 1.13
130 | U7C U8G U10A C12G C13U | 1.18
131 | U7C U8G U10A C12G C13G | 1.1
132 | U7C U8G G9U U10C U11G C12U C13U | 1.41
133 | U7C U8G G9U U10C U11G C12U C13A | 1.24
134 | U7C U8G G9U U10C U11G C12U C13G | 1.22
135 | U7C U8G G9U U10G C13G | 1.17
136 | U7C U8G G9U U10G C13U | 1.2
137 | U7C U8G G9U U10G C13A | 1.19
138 | U7C U8G G9U U10G U11G C12G C13G | 1.24
139 | U7C U8G G9U U10G U11G C12G C13A | 1.15
140 | U7C U8G G9U U10G U11G C12G C13U | 1.25
141 | U7C U8G G9U U10A C13G | 1.08
142 | U7C U8G G9U U10A C13U | 1.1
143 | U7C U8G G9U U10A C13A | 1.14
144 | U7C U8G G9U U10C U11C C12A | 1.07

Row | Variant | aptazyme ON/OFF ratio
145 | U7C U8G G9U U10C U11C C12U | 1.1
146 | U7C U8G G9U U10C U11C C12G | 1.07
147 | U7C U8G G9U U11G C12A C13A | 1.17
148 | U7C U8G G9U U11G C12A C13U | 1.21
149 | U7C U8G G9U U11G C12A C13G | 1.24
150 | U7C U8G G9U U11C C12A C13U | 1.33
151 | U7C U8G G9U U11C C12A C13A | 1.31
152 | U7C U8G G9U U11C C12A C13G | 1.13
153 | U7C U8G U10A U11G C12G C13G | 1.23
154 | U7C U8G U10A U11G C12G C13U | 1.36
155 | U7C U8G U10A U11G C12G C13A | 1.11
156 | U7C U8G G9U U10G U11C C12U C13G | 1.08
157 | U7C U8G G9U U10G U11C C12U C13A | 1.13
158 | U7C U8G G9U U10G U11C C12U C13U | 1.04
159 | U7C U8G G9U U11A C12A C13G | 1.19
160 | U7C U8G G9U U11A C12A C13A | 1.32
161 | U7C U8G G9U U11A C12A C13U | 1.21
162 | U7C U8G G9U U10C C12A | 1.68
163 | U7C U8G G9U U10C C12G | 1.29
164 | U7C U8G G9U U10C C12U | 1.4
165 | U7C U8G G9U U10G U11C C13U | 1.16
166 | U7C U8G G9U U10G U11C C13A | 1.17
167 | U7C U8G G9U U10G U11C C13G | 1.14
